The text below walks through data of patent US20190375846A1 (ULTRAHUMAN ONE, published 2019).

Usually Kd stands for the free concentration of one partner at which half of the binding sites on the other are occupied at equilibrium, for simple one-to-one binding. As a reminder, the koff is the rate constant with which the complex falls apart. The kon is the rate constant with which the complex forms.

For assay [1], the target named is T1, human GITR-Fc (human, UniProt Q9Y5U5 26-161).
T1 construct: Recombinant GITR-Fc; also called hGITR-Fc; hGITR; not shown: Fc part
T1 sequence (looked up): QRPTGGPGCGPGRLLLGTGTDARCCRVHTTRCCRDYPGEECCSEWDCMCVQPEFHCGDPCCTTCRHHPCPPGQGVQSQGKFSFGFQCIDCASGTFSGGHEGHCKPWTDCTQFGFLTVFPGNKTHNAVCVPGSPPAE
The assay is described as follows: direct titration ELISA on coated human GITR-Fc, IgG1 0.001-1 µg/ml, OD 450 nm. Here is the method:
(§1) To coat Greiner Bio-One High bind ELISA plates, target proteins were diluted to 1 μg/ml in carbonate buffer and added at 100 μl per well, at 4° C., o/n. Coated plates were washed 3× with PBS pH7.4, blocked with 1% BSA in PBS (380 μl/well) for 1 hr at RT, then washed 3× with PBS-Tween 20 (PBST). GITR antibodies (100 μl/well; diluted in PBST) were then added and then incubated 1 hr at RT. Plates were then washed 3× with PBST and goat anti-human kappa chain-HRP added (100 μl/well) at RT, for 1 hr. Plates were then washed 3× with PBST and twice with PBS before the addition of 100 μl TMB per well. Reactions were stopped by adding 100 μl 2M H₂SO₄/well and OD was read on a plate reader at 450 nm. IgG binding analysis via ELISA on negatively charged biomolecular surfaces were performed as previously described (see Mouquet et al., 2010, Nature 467: 591-595).
(§2) Retention of GITR-binding function in the purified IgG1 proteins was first examined by titration in direct binding ELISA against human GITR-Fc. […] Importantly, the >100-fold loss of binding function in the VH2 IgG family further illustrated that the HCDR1 could not be fully germ-lined a priori to match the native sequence of the human germline HCDR1 found in the framework used for grafting (IGHV3-7).
(An ELISA detects its analyte on a solid surface through an enzyme-linked reagent.)

Assay [2] concerns the target T1, human GITR-Fc. The experiment in a line: direct titration ELISA, coated human GITR-Fc, IgG1. Here is the method: as §1, §2
The target in assay [3] is T2, cynomolgus monkey GITR-Fc (cynomolgus monkey (Macaca fascicularis)).
T2 construct: also called cyno GITR-Fc; cGITR-Fc
The assay is described as follows: SPR (Biacore), Fab over GITR-Fc captured on anti-human Fc, 37 C, 1:1 model. Here is the method:
(§3) For affinity estimation, anti-human IgG Fc antibody was amine coupled at pH 5 onto three flow cells (Fc 1 to Fc 3) of a Biacore CM5 chip. The level of anti-Fc antibody immobilised onto the chip was approximately 550 RU. Human and cyno GITR-Fc and irrelevant receptor-Fc proteins were then captured onto the anti-Fc antibodies (by injecting over the antibody surface until nearly/completely saturated) in order that 80-100 RU were captured. Fab monomers were then injected over the Fc proteins captured on the chip at 37° C. a flow rate of 50 μl/min for 120 seconds, followed by Biacore running buffer (HBS-EP) being flowed over the chip for 240 seconds at 50 μl/min. The chip was regenerated between cycles using 2×15 second injections of 10 mM Glycine pH 2. The concentrations of Fab samples tested were 400, 200, 100, 50, 25, 12.5, and 6.25 nM. A Biacore running buffer control (0 nM) was also included as a control.
(§4) Monomeric Fab fragments were generated and flowed in the mobile phase on human and cyno GITR-Fc coated biosensor chips, to derive 1:1 binding values.
On the technique in general: Surface plasmon resonance follows binding to a sensor surface in real time, without labels.

Assay [4] addresses T1, human GITR-Fc. The assay is described as above. Here is the method:
as §3, §4

B1: VH1/VL3 IgG1 (antibody, V domains shown)
VH: QVTLRESGPALVKPTQTLTLTCTFSGFSLSTSGMGVGWIRQPPGKALEWLAHIWWDDDKYYNPSLKSRLTISKDTSKNQVVLTMTNMDPVDTATYYCARTRRYFPFAYWGQGTLVTVSS
VL: DIQMTQSPSSLSASVGDRVTITCRASQNVGTNVAWYQQKPGKAPKLLIYSASYRYSGVPSRFSGSGSGTDFTLTISSLQPEDFATYYCQQYNTDPLTFGGGTKVEIK
notes: Human IgG1; also called VH1 family
Regarding B1, in the assay with human GITR-Fc [1], the binding result is recorded as “binds”.

B2: VH2/VL3 IgG1 (antibody, V domains shown)
VH: EVQLVESGGGLVQPGGSLRLSCAASGFTFSSYWMSWVRQAPGKGLEWLAHIWWDDDKYYVDSVKGRFTISRDNAKNSLYLQMNSLRAEDTAVYYCARTRRYFPFAYWGQGTLVTVSS
VL: DIQMTQSPSSLSASVGDRVTITCRASQNVGTNVAWYQQKPGKAPKLLIYSASYRYSGVPSRFSGSGSGTDFTLTISSLQPEDFATYYCQQYNTDPLTFGGGTKVEIK
notes: Human IgG1; also called VH2 family
As to B2, the “fold loss of binding function (against mVH/mVL IgG)” value (shortened to “fold loss … (against mVH/mVL IgG)”) with human GITR-Fc [2] is over 100 fold.

B3: MH-1 IgG1 (antibody, V domains shown)
VH: EVQLVESGGGLVQPGGSLRLSCAASGFSLSTSGMGMSWVRQAPGKGLEWVAHIWWDDEKYYVDSVKGRFTISRDNAKNSLYLQMNSLRAEDTAVYYCARTRQYFPFAYWGQGTLVTVSS
VL: EIVLTQSPATLSLSPGERATLSCRASQSVGSNLAWYQQKPGQAPRLLIYSASYRATGIPARFSGSGSGTDFTLTISSLEPEDFAVYYCQQYSTDPLTFGGGTKVEIK
notes: Human IgG1, designer clone; built as m28; also called Clone MH-1
Take B3: the binding result with human GITR-Fc [2] is given as “binds”.

B4: VH3/VL3 IgG1 (antibody, V domains shown)
VH: EVQLVESGGGLVQPGGSLRLSCAASGFSLSTSGMGVGWVRQAPGKGLEWLAHIWWDDDKYYVDSVKGRFTISRDNAKNSLYLQMNSLRAEDTAVYYCARTRRYFPFAYWGQGTLVTVSS
VL: DIQMTQSPSSLSASVGDRVTITCRASQNVGTNVAWYQQKPGKAPKLLIYSASYRYSGVPSRFSGSGSGTDFTLTISSLQPEDFATYYCQQYNTDPLTFGGGTKVEIK
notes: Human IgG1; also called VH3 family
With B4, the binding result in the assay with human GITR-Fc [1] is listed as “binds”.

B5: MH-4 IgG1 (antibody, V domains shown)
VH: EVQLVESGGGLVQPGGSLRLSCAASGFSLSTSGYGMSWVRQAPGKGLEWVAHIWWDDEKYYVDSVKGRFTISRDNAKNSLYLQMNSLRAEDTAVYYCARTRQYFPFAYWGQGTLVTVSS
VL: EIVLTQSPATLSLSPGERATLSCRASQSVGSNVAWYQQKPGQAPRLLIYSASYRATGIPARFSGSGSGTDFTLTISSLEPEDFAVYYCQQYSTDPLTFGGGTKVEIK
notes: Human IgG1, designer clone; built as m28; also called Clone MH-4
Turning to B5, the binding result with human GITR-Fc [2] was “binds”.

B6: MH-3 IgG1 (antibody, V domains shown)
VH: EVQLVESGGGLVQPGGSLRLSCAASGFSLSTSGYGMSWVRQAPGKGLEWVAHIWWDDEKYYVDSVKGRFTISRDNAKNSLYLQMNSLRAEDTAVYYCARTRQYFPFAYWGQGTLVTVSS
VL: EIVLTQSPATLSLSPGERATLSCRASQNVGSNLAWYQQKPGQAPRLLIYSASYRATGIPARFSGSGSGTDFTLTISSLEPEDFAVYYCQQYSTDPLTFGGGTKVEIK
notes: Human IgG1, designer clone; built as m28; also called Clone MH-3
With B6, the binding result with human GITR-Fc [2] is “binds”.

B7: MH-2 IgG1 (antibody, V domains shown)
VH: EVQLVESGGGLVQPGGSLRLSCAASGFSLSTSGYGVSWVRQAPGKGLEWVAHIWWDDEKYYVDSVKGRFTISRDNAKNSLYLQMNSLRAEDTAVYYCARTRQYFPFAYWGQGTLVTVSS
VL: EIVLTQSPATLSLSPGERATLSCRASQSVGSNLAWYQQKPGQAPRLLIYSASYRATGIPARFSGSGSGTDFTLTISSLEPEDFAVYYCQQYSTDPLTFGGGTKVEIK
notes: Human IgG1, designer clone; built as m28; also called Clone MH-2
For the molecule B7, the binding result with human GITR-Fc [2] is “binds”.

B8: VH4/VL1 IgG1 (antibody, V domains shown)
VH: EVQLVQSGAEVKKPGESLKISCKGSGFSLSTSGMGVGWVRQMPGKGLEWLAHIWWDDDKYYSPSFQGQVTISADKSISTAYLQWSSLKASDTAMYYCARTRRYFPFAYWGQGTLVTVSS
VL: EIVMTQSPATLSVSPGERATLSCKASQNVGTNVAWYQQKPGQAPRLLIYSASYRYSGIPARFSGSGSGTEFTLTISSLQSEDFAVYYCQQYNTDPLTFGGGTKVEIK
notes: Human IgG1; also called VH4 family
Turning to B8, the binding result with human GITR-Fc [1] was “binds”.

B9: VH4/VL3 IgG1 (antibody, V domains shown)
VH: EVQLVQSGAEVKKPGESLKISCKGSGFSLSTSGMGVGWVRQMPGKGLEWLAHIWWDDDKYYSPSFQGQVTISADKSISTAYLQWSSLKASDTAMYYCARTRRYFPFAYWGQGTLVTVSS
VL: DIQMTQSPSSLSASVGDRVTITCRASQNVGTNVAWYQQKPGKAPKLLIYSASYRYSGVPSRFSGSGSGTDFTLTISSLQPEDFATYYCQQYNTDPLTFGGGTKVEIK
notes: as for B8
For B9, the binding result in the assay with human GITR-Fc [1] is “binds”.

B10: VH3/VL1 IgG1 (antibody, V domains shown)
VH: EVQLVESGGGLVQPGGSLRLSCAASGFSLSTSGMGVGWVRQAPGKGLEWLAHIWWDDDKYYVDSVKGRFTISRDNAKNSLYLQMNSLRAEDTAVYYCARTRRYFPFAYWGQGTLVTVSS
VL: EIVMTQSPATLSVSPGERATLSCKASQNVGTNVAWYQQKPGQAPRLLIYSASYRYSGIPARFSGSGSGTEFTLTISSLQSEDFAVYYCQQYNTDPLTFGGGTKVEIK
notes: as for B4
Consider B10, for which the binding result with human GITR-Fc [1] was “binds”.

B11: VH1/VL1 Fab (Fab, V domains shown)
VH: QVTLRESGPALVKPTQTLTLTCTFSGFSLSTSGMGVGWIRQPPGKALEWLAHIWWDDDKYYNPSLKSRLTISKDTSKNQVVLTMTNMDPVDTATYYCARTRRYFPFAYWGQGTLVTVSS
VL: EIVMTQSPATLSVSPGERATLSCKASQNVGTNVAWYQQKPGQAPRLLIYSASYRYSGIPARFSGSGSGTEFTLTISSLQSEDFAVYYCQQYNTDPLTFGGGTKVEIK
notes: also called VH1/VL1 Fab fragment
In assay [3], B11 gave a dissociation constant (Kd) of 270 nM, an off-rate (koff) of 0.0061 s⁻¹ and a kon of 22000 M⁻¹ s⁻¹. In addition, in the assay with human GITR-Fc [4], the equilibrium dissociation constant (Kd) was 110 nM, the koff is 0.0051 s⁻¹ and the association rate constant (kon) came out at 45000 M⁻¹ s⁻¹.

B12: VH2/VL1 IgG1 (antibody, V domains shown)
VH: EVQLVESGGGLVQPGGSLRLSCAASGFTFSSYWMSWVRQAPGKGLEWLAHIWWDDDKYYVDSVKGRFTISRDNAKNSLYLQMNSLRAEDTAVYYCARTRRYFPFAYWGQGTLVTVSS
VL: EIVMTQSPATLSVSPGERATLSCKASQNVGTNVAWYQQKPGQAPRLLIYSASYRYSGIPARFSGSGSGTEFTLTISSLQSEDFAVYYCQQYNTDPLTFGGGTKVEIK
notes: Human IgG1; The dash printed in the HCDR1 of VH2 is an alignment gap; also called VH2 family
As for B12, the “fold loss … (against mVH/mVL IgG)” value with human GITR-Fc [2] is over 100 fold.

B13: VH2/VL2 IgG1 (antibody, V domains shown)
VH: EVQLVESGGGLVQPGGSLRLSCAASGFTFSSYWMSWVRQAPGKGLEWLAHIWWDDDKYYVDSVKGRFTISRDNAKNSLYLQMNSLRAEDTAVYYCARTRRYFPFAYWGQGTLVTVSS
VL: EIVLTQSPATLSLSPGERATLSCRASQNVGTNVAWYQQKPGQAPRLLIYSASYRYSGIPARFSGSGSGTDFTLTISSLEPEDFAVYYCQQYNTDPLTFGGGTKVEIK
notes: as for B2
For B13, the “fold loss … (against mVH/mVL IgG)” value with human GITR-Fc [2] was over 100 fold.

B14: VH4/VL2 IgG1 (antibody, V domains shown)
VH: EVQLVQSGAEVKKPGESLKISCKGSGFSLSTSGMGVGWVRQMPGKGLEWLAHIWWDDDKYYSPSFQGQVTISADKSISTAYLQWSSLKASDTAMYYCARTRRYFPFAYWGQGTLVTVSS
VL: EIVLTQSPATLSLSPGERATLSCRASQNVGTNVAWYQQKPGQAPRLLIYSASYRYSGIPARFSGSGSGTDFTLTISSLEPEDFAVYYCQQYNTDPLTFGGGTKVEIK
notes: as for B8
For B14, the binding result with human GITR-Fc [1] was “binds”.

B15: VH1/VL2 IgG1 (antibody, V domains shown)
VH: QVTLRESGPALVKPTQTLTLTCTFSGFSLSTSGMGVGWIRQPPGKALEWLAHIWWDDDKYYNPSLKSRLTISKDTSKNQVVLTMTNMDPVDTATYYCARTRRYFPFAYWGQGTLVTVSS
VL: EIVLTQSPATLSLSPGERATLSCRASQNVGTNVAWYQQKPGQAPRLLIYSASYRYSGIPARFSGSGSGTDFTLTISSLEPEDFAVYYCQQYNTDPLTFGGGTKVEIK
notes: as for B1
Consider B15, for which, in the assay with human GITR-Fc [1], the binding result is recorded as “binds”.
